Values of other authors in article PMC10582360, “A nanoparticle platform for combined mucosal healing and immunomodulation in inflammatory bowel disease treatment” (Bioactive materials, 2023).

Test system: dipeptidyl peptidase IV (DPP-IV)
Conditions: ref [4]
Description: Teduglutide, a GLP-2 analog with prolonged half-life, is commercialized as a daily subcutaneous injection (Gattex®, Revestive®) for its use in short bowel syndrome (SBS) in patients who are dependent on parenteral support. A second long-acting GLP-2 analog, glepaglutide (Zealand Pharma), has just ...

## Glucagon-like peptide 2 [GLP-2]
  cleavage by DPP-IV: rapidly cleaved
